Laboratory results published in patent US6861578B1, “Method for plant protection against insects or nematodes by transformation with a nucleic acid encoding equistatin” (Plant Research International B.V., priority 1997, dated 2005).

Assays:
trypsin = assay: Screen of equistatin against serine proteinase trypsin; limited proteolysis; assay type: biochemical; details: screened against cathepsin D and trypsin
Description: Equistatin was isolated from sea anemone A. equina by a procedure that was described previously utilizing its inhibitory activity toward cysteine proteinase, papain (Lenarcic et al. (1997) J. Biol. Chem. 272: 13899). Besides cysteine proteinases, equistatin was screened for the inhibition of two other classes of proteinases, aspartic proteinases (cathepsin D) and serine proteinase (trypsin). […] 500 μg equistatin was incubated with 5 μg of β-trypsin in 0.5 ml of 0.1 M Tris/HCl buffer pH 8.0, for 40 min at 37° C. Reaction was stopped by the addition of trifluoroacetic acid. The 9-trypsin digest of equistatin was separated by high performance liquid chromatography (Milton Roy Co.) using a reverse phase Vydac C18 column equilibrated with 5% acetonicril containing 0.1% (v/v) trifluoroacetic acid. Elution was performed using a linear gradient of 80% (v/v) acetonitrile containing 0.1% (v/v) trifluoroacetic acid. Absorbance was monitored at 215 nm. Two major peaks were obtained on the reverse-phase. HPLC (FIG. 9B). The molecular weights, estimated by the SDS PAGE under non-reducing conditions, were about 7,000 and 14,000 (FIG. 10). Determination of the N-termini of the both fragments allowed them to be located in the sequence of the equistatin molecule shown schematically in FIG. 11. […]

[1] = system: endoprotease activity of Colorado potato beetle larval gut extracts; assay: Narrow spectrum endoprotease activity of Colorado potato beetle gut extract, Z-Arg-Arg-pNA; assay type: biochemical, Leptinotarsa decemlineata
From the text: Guts of final instar Colorado potato beetle larvae reared on methyl jasmonate induced plants were isolated and extracted essentially as described (Bolter and Jongsma, J. Insect Physiol. 41: 1071-1078). In these gut extracts the proteases that are sensitive to the protease inhibitors of potato are already complexed. The residual protease activity is composed of potato protease-inhibitor-insensitive proteases which were induced in response to the methyl jasmonate induced potato inhibitors. These proteases are the proteases that render the beetle larvae insensitive to protease inhibitor defense of the potato plant. Wle tested a broad range of different cysteisie protease inhibitors for activity specifically against these induced potato protease inhibitor-insensitive cysteine protesses. Nearly all of these inhibitors were purified at the Jozef Stefan Institute in Slovenia. Testing their potential against Colorado potato beetle was done using both general protein substrates (azocasein, table 2) as well as specific synthetic substrates (L-Arg-pNA, table 3; pGlu-Phe-Leu-pNA, table 4; Z-Phe-Arg-pNA, table 5; Z-Arg-Arg-pNA, table 6). In specific cases inhibitors were tested at two concentrations, eauimolar and in excess to the protease, in order to obtain an indication of the tightness of the complex. […] Importantly, this class of inhibitors was capable of inhibiting nearly all general cysteine protease activity. The equistatin peptide molecule and a functional derivative thereof were not very active against the aminopeptidase-like cysteine protease activity. […] The best combination of inhibitors for full toxicity against the Colorado potato beetle would therefore be a combination of equistatin or p41 invariant chain fragment and stefin-like inhibitors.

B1: equistatin: cysteine/aspartic protease inhibitor from sea anemone Actinia equina with three type I repeated thyroglobulin domains; purified or recombinant from E. coli (protein)
chain: SLTKCQQLQASANSGLIGTYVPQCKETGEFEEKQCWGSTGYCWCVDEDGKEILGTKIRGSPDCSRRKAALTLCQMMQAIIVNVPGWCGPPSCKADGSFDEVQCCASNGECYCVDKKGKELEGTRQQGRPTCERHLSECEEARIKAHSNSLRVEMFVPECLEDGSYNPVQCWPSTGYCWCVDEGGVKVPGSDVRFKRPTC
modifications: left off: large carriers; small tags and cut ends
notes: purified or recombinant from E. coli
trypsin
  inhibitory effect on trypsin (screen): observed only when it was reacting with cathepsin D
[1]; equimolar
  % of residual activity, equimolar: 20%
[1]; excess inhibitor
  % of residual activity, excess inhibitor: −5%
